Reference: patent US20050123549A1 (IMMUNOGEN, published 2005)

Key:
[1] = target: T1, Muc1 mucin carrying the CA6 sialoglycotope (human, UniProt P15941 24-1255, sialylated O-linked carbohydrate carrying the CA6 epitope; positions not stated); assay: competition flow cytometry on WISH cells; competitor 2 nM biotin-muDS6, streptavidin-DTAF
T1 construct: whole, on cells; Target of DS6 on CA6-positive human cell lines (flow cytometry) and in their lysates (dot blots, immunoprecipitation); also called CA6 antigen; DS6 antigen
Description: (§1) To confirm that the huDS6 versions retains the affinity of muDS6, competitive binding experiments were conducted. […] In some cases, the experimentally measured apparent Kd can vary simply because of the secondary reagent used to indirectly detect binding.

[2] = target: T1, Muc1 mucin carrying the CA6 …; assay: flow cytometry on WISH cells, direct binding
[3] = target: T1, Muc1 mucin carrying the CA6 …; assay: flow cytometry on WISH cells, detected with streptavidin-DTAF
Description: as §1

[4] = target: T1, Muc1 mucin carrying the CA6 …; assay: flow cytometry on WISH cells, detected with goat anti-mouse-FITC
[5] = target: T1, Muc1 mucin carrying the CA6 …; assay: flow cytometry on Caov-3 cells
[6] = target: T1, Muc1 mucin carrying the CA6 …; assay: cell-based or functional assay
[7] = target: T1, Muc1 mucin carrying the CA6 …; assay: flow cytometry on HeLa cells

B1: humanized DS6 antibody version 1.0 (antibody, human IgG1, V domains shown)
VH: QAQLQVSGAEVVKPGASVKMSCKASGYTFTSYNMHWVKQTPGQGLEWIGYIYPGNGATNYNQKFQGKATLTADTSSSTAYMQISSLTSEDSAVYFCARGDSVPFAYWGQGTLVTVSA
VL: EIVLTQSPATMSASPGERVTITCSAHSSVSFMHWFQQKPGTSPKLWIYSTSSLASGVPARFGGSGSGTSYSLTISSMEAEDAATYYCQQRSSFPLTFGAGTKLELKR
notes: also called huDS6 v1.0; v1.0
[1]
  EC50: 37.1 nM
[2]
  Kd: 3.71 nM

B2: biotinylated murine DS6 (antibody, V domains shown)
VH: QAYLQQSGAELVRSGASVKMSCKASGYTFTSYNMHWVKQTPGQGLEWIGYIYPGNGATNYNQKFKGKATLTADPSSSTAYMQISSLTSEDSAVYFCARGDSVPFAYWGQGTLVTVSA
VL: QIVLTQSPAIMSASPGEKVTITCSAHSSVSFMHWFQQKPGTSPKLWIYSTSSLASGVPARFGGSGSGTSYSLTISRMEAEDAATYYCQQRSSFPLTFGAGTKLELKR
modifications: biotinylated; positions not given
notes: Murine DS6 IgG with biotin; also called biotin-muDS6; biotin-DS6
[3]
  Kd: 6.76 nM
[4]
  Kd: 2.8 nM

B3: chimeric DS6 (antibody, V domains shown)
VH: QAYLQQSGAELVRSGASVKMSCKASGYTFTSYNMHWVKQTPGQGLEWIGYIYPGNGATNYNQKFKGKATLTADPSSSTAYMQISSLTSEDSAVYFCARGDSVPFAYWGQGTLVTVSA
VL: QIVLTQSPAIMSASPGEKVTITCSAHSSVSFMHWFQQKPGTSPKLWIYSTSSLASGVPARFGGSGSGTSYSLTISRMEAEDAATYYCQQRSSFPLTFGAGTKLELKR
[2]
  Kd: 3.15 nM

B4: DS6 antibody-DM1 conjugate (antibody, V domains shown)
VH: QAYLQQSGAELVRSGASVKMSCKASGYTFTSYNMHWVKQTPGQGLEWIGYIYPGNGATNYNQKFKGKATLTADPSSSTAYMQISSLTSEDSAVYFCARGDSVPFAYWGQGTLVTVSA
VL: QIVLTQSPAIMSASPGEKVTITCSAHSSVSFMHWFQQKPGTSPKLWIYSTSSLASGVPARFGGSGSGTSYSLTISRMEAEDAATYYCQQRSSFPLTFGAGTKLELKR
modifications: DM1 linked through the SPP disulfide linker, DM1/Ab ratio 4.36; positions not given
notes: also called DS6-DM1; immunoconjugate
[5]
  Kd: 3.9 nM
[6]
  Clonogenic Assay Conjugate IC50 (M), BT-20 cells: > 3e-09 M
  Clonogenic Assay Conjugate IC50 (M), BT-483 cells: 1e-10 M
  Clonogenic Assay Conjugate IC50 (M), Caov-3 cells: 8e-10 M
  Clonogenic Assay Conjugate IC50 (M), Caov-4 cells: > 3e-09 M
  Clonogenic Assay Conjugate IC50 (M), HPAC cells: 1.8e-09 M
  Clonogenic Assay Conjugate IC50 (M), HPAF-II cells: > 3e-09 M
  Clonogenic Assay Conjugate IC50 (M), HeLa cells: 1.8e-09 M
  Clonogenic Assay Conjugate IC50 (M), Hs766T cells: > 3e-09 M
  Clonogenic Assay Conjugate IC50 (M), KB cells: 1.4e-09 M
  Clonogenic Assay Conjugate IC50 (M), OVCAR5 cells: > 3e-09 M
  Clonogenic Assay Conjugate IC50 (M), T-47D cells: > 3e-09 M
  Clonogenic Assay Conjugate IC50 (M), TOV-21G cells: 2e-09 M
  Clonogenic Assay Conjugate IC50 (M), WISH cells: 4.6e-10 M
  MTT Assay Conjugate EC50 (M), BT-20 cells: 1.44e-08 M
  MTT Assay Conjugate EC50 (M), Caov-3 cells: 1.61e-09 M
  MTT Assay Conjugate EC50 (M), HPAC cells: 1.84e-09 M
  MTT Assay Conjugate EC50 (M), HPAF-II cells: 1e-08 M
  MTT Assay Conjugate EC50 (M), Hs766T cells: > 3.2e-08 M
  MTT Assay Conjugate EC50 (M), KB cells: 3.01e-09 M
  MTT Assay Conjugate EC50 (M), OVCAR5 cells: 8.46e-07 M
  MTT Assay Conjugate EC50 (M), TOV-21G cells: 6.88e-09 M
  MTT Assay Conjugate EC50 (M), WISH cells: 6.69e-10 M
  MTT Assay Conjugate EC50 (M), ZR-75-1 cells: 9.45e-10 M

B5: DS6-SPP-MM1-202 taxoid conjugate (antibody, V domains shown)
VH: QAYLQQSGAELVRSGASVKMSCKASGYTFTSYNMHWVKQTPGQGLEWIGYIYPGNGATNYNQKFKGKATLTADPSSSTAYMQISSLTSEDSAVYFCARGDSVPFAYWGQGTLVTVSA
VL: QIVLTQSPAIMSASPGEKVTITCSAHSSVSFMHWFQQKPGTSPKLWIYSTSSLASGVPARFGGSGSGTSYSLTISRMEAEDAATYYCQQRSSFPLTFGAGTKLELKR
modifications: taxoid MM1-202 linked through the SSNPP linker, 2.86 drugs/antibody; positions not given
notes: also called taxane-conjugated DS6 antibody
[7]
  Kd: 1.24 nM

B6: humanized DS6 antibody version 1.2 (antibody, human IgG1, V domains shown)
VH: QAQLQVSGAEVVKPGASVKMSCKASGYTFTSYNMHWVKQTPGQGLEWIGYIYPGNGATNYNQKFQGKATLTADPSSSTAYMQISSLTSEDSAVYFCARGDSVPFAYWGQGTLVTVSA
VL: EIVLTQSPATMSASPGERVTITCSAHSSVSFMHWFQQKPGTSPKLWIYSTSSLASGVPARFGGSGSGTSYSLTISSMEAEDAATYYCQQRSSFPLTFGAGTKLELKR
notes: The light chain is the same as in v1.0; also called huDS6 v1.2; v1.2
[1]
  EC50: 22.6 nM
[2]
  Kd: 4.2 nM
